This note sets out measurements from publication PMC9950733, “Screening and epitope characterization of diagnostic nanobody against total and activated Bacteroides fragilis toxin” (Frontiers in Immunology, 2023).

Changes are numbered by the printed parent chain.

A word on the stoichiometry N: it is a count of units in the complex or per binding partner. The term Kd denotes the concentration at which binding is half-saturated.

Sequences and labels used below:
B1: Nb2.82 (VHH)
VHH: QVQLQESGGGLVQPGGSLRLSCAASGFTFSRYTMTWVRQAPGKGLEWVSNINSDGGRTYYADSVKGRFTISRDNTKNTLYLQMNSLKPEDTAVYYCAIPKRTYVPPSQFDDRGQGTQVTVSS
notes: from round 2 of bio-panning; CDR1 Gly26-Thr33, CDR2 Ile51-Thr58, CDR3 Ala97-Asp111; source: E. coli WK6 periplasm, purified (Ni-NTA, SEC on Superdex 75)
B2: Nb3.4 (VHH)
VHH: QVQLQESGGGLVQPGGSLRLSCAASGFTFSSAAMNWVRQAPGKGPEWVSGINSSGTTTKYADSVKGRFTISRDNAKNTLYLQMNSLKPEDTAIYYCARKPLWSVGYDYWGQGTQVTVSS
notes: from round 3 of bio-panning; source: E. coli WK6 periplasm, purified (Ni-NTA, SEC on Superdex 75)
B3: Nb2.55 (VHH)
VHH: QVQLQESGGGLVQAGGSLRLSCVRSGHTFDAFAMGWFRQAPGKERESVATINWSGDRTYYADSAKGRFTISRDNAKNTVYLQMNSLKPEDTAVYYCAQMDGTYYSGTPSYWGQGTQVTVSS
notes: from round 2 of bio-panning; source: E. coli WK6 periplasm, purified (Ni-NTA, SEC on Superdex 75)
B4: Nb3.43 (VHH)
VHH: B3 VHH with V23A, H27R, D30S, A31S, S47F, R57K, Y59S, A64V, T107S, S109G
notes: as for B2
B5: Nb2.37 (VHH)
VHH: QVQLQESGGGLVQPGGSLRLSCVVSRRTFDAWAMGWFRQAPGQERDFVASVNWSGDSTYYADSVKGRFTISRDNAKNTVYLQMNSLKPEDTAVYYCAALAGSYHSRTPLDDYWGQGTQVTVSS
notes: as for B3
B6: Nb3.17 (VHH)
VHH: QVQLQESGGGLVQAGDSLRLSCAASGGSFDMFAMGWFRQAPGKERERVATISWSGDRTVYADSVKGRFTISRDNTKKMLYLQMNNLKPEDTAVYYCAQIEGTHYSGSPSDHWGQGTQVTVSS
notes: as for B2
B7: Nb3.93 (VHH)
VHH: QVQLQESGGGLVQPGGSLRLSCAASGSTLARYHIGWFRQAPGKEREGVACISSSGDSTNYADSVKGRFTISRDNANNTVYLQMNSLKPEDTAVYYCVADPLKCILRRGGENRYLEHWGQGTQVTVSS
notes: as for B2
B8: Nb2.14 (VHH)
VHH: QVQLQESGGGFVQTGGSLRLSCERSGTTFDSFAMGWFRQSPGKEREKVATINWSGESTSYTDSVKGRFTISRDNAKNTVYLQMNNLQPEDTAIYYCAQIAGTHYSGTPQYWGQGTQVTVSS
notes: as for B3
B9: Nb3.40 (VHH)
VHH: B8 VHH with H103Y
notes: as for B2
B10: Nb3.63 (VHH)
VHH: QVQLQESGGGLVQVGGSLRLSCAASGRTFGTFPMGWFRQAPGKEREFVAAISWSGTGTYYANSVKGRFTISRDNARNTVYLQMNNLKPEDTAVYSCAGRNTGRYSTTVYVEESDYGYWGQGTQVTVSS
notes: as for B2
B11: Nb2.40 (VHH)
VHH: QVQLQESGGGLVQAGGSLRLSCAYFGRTFSAWAMGWFRQAPGKERESVATINWSGERTSYADSVKGRFTISRDNAKNTVYLQMNSLKPEDTAVYYCAAMEGTYYSGKPGTWGQGTQVTVSS
notes: as for B3
B12: Nb3.27 (VHH)
VHH: QVQLQESGGGLVQAGGSLRLSCTYSGQTFSAWAMGWFRQAPGKERETVATINWNGERTQYADAVKGRFTISRDNAKDTVYLEMNSLKPEDTAVYYCASMMGTYYSGSPKNWGQGTQVTVSS
notes: from round 3 of bio-panning; CDR1 Gly26-Ala33, CDR2 Ile51-Thr58, CDR3 Ala97-Asn110; source: E. coli WK6 periplasm, purified (Ni-NTA, SEC on Superdex 75)
B13: Nb2.29 (VHH)
VHH: QVQLQESGGGLVQAGGSLRLSCVASGIIDNINTFGWYRQAPGKQRELVANISRWGNTNYADSSRDGFFISSEDANTTMYLLMMNLKPDDDAVYYCRAEIIGYDNGAHDYWGRGTRITVSS
notes: as for B3
B14: Nb2.41 (VHH)
VHH: QVQLQESGGGLVQAGGSLRLSCASSGRTFDAWAMGWFRQAPGKEREVVATISWNGDRTYYGDSVKGRFTISRDNAKSTVALQMNNLKPEDTGVYYCAQMEGTYYSGRPSYWGQGTQVTVSS
notes: as for B3
B15: Nb2.1 (VHH)
VHH: QVQLQESGGGLVQPEGSLRLSCVASGEFTLDYYAIGWFRQAPGKEREELSCISRTGANTNYADSVKGRFTVSRDNAKNTVYLQMNSLKPEDTANYYCAATLGVNNDCSGYVSPDVYDYWGHGTQVTVSS
B16: Nb3.74 (VHH)
VHH: QVQLQESGGGFVQTGGSLRLSCERSGTTFDSFAMGWFRQAPGKERESVGTINWSGDRTYYADSVKGRFTISRDNAKNTVYLQMKKLKPEDTAVYYCAQIRGTYLDGSPGSWGQGTQVTVSS
B17: Nb2.59 (VHH)
VHH: QVQLQESGGGLVQAGGSLRLSCAFSGRTDDAQYAMGWFRQAPGKERESVGTINWSGDRTNYADSVKGRFTISRDNVKNMMYLQMNSLKPEDTAVYYCARIYGTYLSGSPGSWGQGTQVTVSS
B18: Nb2.74 (VHH)
VHH: QVQLQESGGGLVQPGGSLRLSCGASGFTFNGYAMSWVRQAPGKGPEWVSGINTIGNTTYYADSVKGRFTISRDNAQNTLYLQMNSLKPEDTALYYCARKPFGSTWTEYDYRGQGTQVTVSS
B19: Nb3.88 (VHH)
VHH: B18 VHH with G23A, F27L, N56T, Q76K, T106S
B20: Nb3.61 (VHH)
VHH: QVQLQESGGGLVQPGGSLRLSCAASGFSFSSYAMTWVRQAPGKGPERVSIINPSGRTTNYADSVKGRFTISRDNAKNTLYLQMNSLKPEDTALYYCARKPPMAEEYDYRGQGTQVTVSS
B21: Nb2.13 (VHH)
VHH: QVQLQESGGGLVQPGGSLTLSCVGSGFSLEYYAVGWFRQAPGKEREAVACISSWDGLTYLSDSVKGRFTVSRDNVKNTAYLQMNSLKPEDSAVYYCARDRARCRYYSTPNEYDEWGHGTQVTVSS
B22: Nb2.50 (VHH)
VHH: QVQLQESGGGLVQAGGSLRLSCVSSGRTFDAWAMGWLRQAPGKERESVATISWSGDRTQYADSVKGRFTISRDNAKNTLFLQMNNLRPEDTAIYYCALMEGTHYSGRPGTWGRGTQVTVSS

One experiment has as its target T1, recombinant Bacteroides fragilis toxin 1 (BFT1), full length without signal peptide (Bacteroides fragilis (enterotoxigenic), …).
T1 construct: B. fragilis toxin subtype 1 (BFT1, fragilysin), zinc-dependent metallopeptidase of enterotoxigenic Bacteroides fragilis; prodomain plus catalytic domain, without the signal peptide; also called B. fragilis toxin; source: E. coli Origami-2 (DE3), purified (Ni-NTA, SEC on Superdex 75)
T1 chain: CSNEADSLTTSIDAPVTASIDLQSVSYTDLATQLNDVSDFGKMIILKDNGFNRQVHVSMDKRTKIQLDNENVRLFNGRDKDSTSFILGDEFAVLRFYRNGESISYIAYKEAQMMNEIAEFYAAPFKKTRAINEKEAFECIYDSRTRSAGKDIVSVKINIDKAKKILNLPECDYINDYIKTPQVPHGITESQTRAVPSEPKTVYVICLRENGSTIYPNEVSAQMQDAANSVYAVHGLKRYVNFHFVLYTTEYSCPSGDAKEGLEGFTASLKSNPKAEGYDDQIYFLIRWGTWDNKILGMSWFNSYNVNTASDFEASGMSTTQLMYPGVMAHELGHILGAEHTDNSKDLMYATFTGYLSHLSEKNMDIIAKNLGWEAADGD
The experiment in a line: ITC; Microcal ITC 200, 25°C; 20 mM Tris pH 8.0, 150 mM NaCl, 5% glycerol; nanobody (20 μM) injected into BFT solution (200 μM); one binding site mode. The conditions noted are these: both partners purified.
B1: the “stoichiometry N” value was determined as 1.

As for B2, the “stoichiometry N” value was determined as 1.

For B3, the “stoichiometry N” value was determined as 1.

For B4, the “stoichiometry N” value was 1.

Regarding B5, the “stoichiometry N” value is 1.

Regarding B6, the “stoichiometry N” value was found to be 1.

Consider B7, for which the “stoichiometry N” value was 1.

For the molecule B8, the “stoichiometry N” value was 1.

On to B9, for which the “stoichiometry N” value came out at 1.

For B10, the “stoichiometry N” value was determined as 1.

B11: the “stoichiometry N” value turned out to be 1.

With B12, the “stoichiometry N” value was determined as 1.

Take B13: the “stoichiometry N” value was 1.

Consider B14, for which the “stoichiometry N” value is 1.

In another experiment the target is T1, recombinant Bacteroides fragilis toxin ….
Test: not given
Conditions: not given
For B15, the binding result is “binds”.

As for B16, the binding result is recorded as “binds”.

Regarding B17, the binding result was “binds”.

Regarding B18, the binding result is on record as “binds”.

As for B19, the binding result is “binds”.

B20: the binding result was “binds”.

As for B21, the binding result was “binds”.

Take B22: the binding result is on record as “binds”.

For another experiment the target is unchanged. As to the kind of experiment: ITC; Microcal ITC 200, 25°C; 20 mM Tris pH 8.0, 150 mM NaCl, 5% glycerol; nanobody (20 μM) injected into BFT solution (200 μM); one binding site mode. The conditions noted are these: both partners purified. This is another data set of the same source.
Turning to B1, the equilibrium dissociation constant (Kd) was found to be 11.5 nM and the dH was -17.9 kcal/mol.

In the case of B2, the Kd is 3.94 nM and the dH was -8.4 kcal/mol.

With B3, the Kd stood at 10.6 nM and the dH is -10 kcal/mol.

As to B4, the Kd came to 2.01 nM and the dH was -9.06 kcal/mol.

As to B5, the Kd worked out at 3.91 nM and the dH was -14.1 kcal/mol.

Consider B6, for which the Kd turned out to be 0.66 nM and the dH was -20.3 kcal/mol.

As for B7, the Kd was 5.96 nM and the dH is -22.1 kcal/mol.

Regarding B8, the Kd turned out to be 0.36 nM and the dH is -14.3 kcal/mol.

With B9, the dissociation constant (Kd) was 2.58 nM and the dH was -13.6 kcal/mol.

On to B10, for which the Kd was 3.37 nM and the dH is -18.8 kcal/mol.

With B11, the Kd stood at 8.72 nM and the dH was -13.5 kcal/mol.

Take B12: the Kd was 0.828 nM and the dH is -9.47 kcal/mol.

Regarding B13, the equilibrium dissociation constant (Kd) was 1.18 nM and the dH is -15.5 kcal/mol.

In the case of B14, the Kd came out at 1.37 nM and the dH is -20 kcal/mol.
